The text below walks through data of PMC8892091.

For data set [1], the target named is T1, ALKBH6 WT (Homo sapiens, UniProt Q3KRA9 1-238). In words: MST.
The next data set has as its target ALKBH6ΔFlip3 (Homo sapiens, UniProt Q3KRA9 1-238, del139-158). In words: MST.
For data set [2], the target named is T2, MBP-ALKBH6 WT (Homo sapiens, UniProt Q3KRA9 1-238). As to the kind of experiment: competition.
For data set [3], the target named is T2, MBP-ALKBH6 WT. As to the kind of experiment: EMSA. For orientation: A gel shift assay detects complexes by their altered migration in electrophoresis.
Data set [4] has as its target T1, ALKBH6 WT. As to the kind of experiment: MST. The source holds these as a separate data set.
A further data set concerns the target MBP-ALKBH6 R225A/R228A (Homo sapiens, UniProt Q3KRA9 1-238, R225A;R228A). In words: EMSA.
A further data set concerns the target MBP-ALKBH6ΔFlip3 (Homo sapiens, UniProt Q3KRA9 1-238, del139-158). In words: EMSA.
Data set [5] concerns the target T1, ALKBH6 WT. As to the kind of experiment: MST. The source holds these as a separate data set.

Substitutions are numbered along the chain they refer to. Where two headings read alike, the source gives them in different places.

B1: ssDNA3 (FAM) (ssDNA)
DNA: GATCCAGTGATCCAGT
B1: the binding result with ALKBH6 WT [1] and in the data set with ALKBH6ΔFlip3 was “binds” throughout.

B2: ssDNA1 (unlabelled) (ssDNA)
DNA: GGATCAACAGTGCACAGTT
On to B2, for which the binding result in the data set with MBP-ALKBH6 WT [2] is “binds”.

B3: poly(A) 30 nt (ssRNA)
RNA: AAAAAAAAAAAAAAAAAAAAAAAAAAAAAA
Take B3: the binding result with MBP-ALKBH6 WT [3] and with ALKBH6 WT [4] was “binds” each time.

B4: ssDNA1 (FAM) (ssDNA)
DNA: GGATCAACAGTGCACAGTT
Regarding B4, the binding result in the data set with MBP-ALKBH6 WT [3] and in the data set with MBP-ALKBH6 R225A/R228A was “binds” each time.

B5: dsDNA1 (dsDNA)
DNA 1: AACTTCGTGCAGGCATGGGATCTTGTCTACT
DNA 2: AGTAGACAAGATCCCATGCCTGCACGAAGTT
In the case of B5, the binding result in the data set with MBP-ALKBH6ΔFlip3 is recorded as “binds”; in the data set with MBP-ALKBH6 WT [3], “no binding”.

B6: Bulge DNA2 (dsDNA)
DNA 1: B5 DNA 1
DNA 2: AGTAGACAACATGCCTGCACGAAGTT
Consider B6, for which the binding result with ALKBH6 WT [5] was “binds”.

B7: Bubble DNA1 (dsDNA)
DNA 1: B5 DNA 1
DNA 2: B5 DNA 2 with A11C, T12G, C13A
For the molecule B7, in the data set with ALKBH6 WT [5], the binding result is listed as “binds”.

B8: Bulge DNA1 (dsDNA)
DNA 1: B5 DNA 1
DNA 2: AGTAGA
DNA 3: CATGCCTGCACGAAGTT
As for B8, the binding result with ALKBH6 WT [5] was “binds”.
